Measurements published in US20240024519A1, “RADIOPHARMACEUTICAL COMPOSITIONS OF COPPER FOR TARGETED MOLECULAR IMAGING” (Curium US LLC, priority 2022, published 2024).

Experiment: Radiochemical purity (RCP) of dose vials over time after formulation, radio-HPLC
Type: physicochemical
Details: 10 Ci batches, with and without SPE purification (both formulations); post-formulation, i.e. after end of synthesis
Procedure: Two 10 Ci batches of copper Cu-64 PSMA I&T were prepared, wherein the primary difference between them was removal of the purification step. During purification, a solid phase extraction cartridge was used to purify the product by removing radiolabeling buffer and remaining ^64Cu copper chloride starting material; however, this step requires concentration of the batch activity in a small volume (i.e., <1 mL), which can encourage radiolytic damage and result in detrimental impacts to radiochemical purity (RCP). This phenomenon was observed experimentally when comparing the radiochemical purity of copper Cu-64 PSMA I&T prepared with and without purification (FIG. 2). The removal of the purification step yielded a product with a higher RCP of 98.9% (FIG. 2B) versus 92.4% (FIG. 2A). The difference between the two purity profiles was that the primary radiolytic impurity (tR=16.8′-17.2′) was largely absent in the non-purified product. In both formulations, the RCP of individual dose vials prepared thereof was maintained over a period of 51 h post-formulation (i.e., 51 h after end of synthesis).

^64Cu-(3S, 7S, 26R, 29R, 32R, 37R)-29-benzyl-32(4-hydroxy-3-iodobenzyl)-5, 13, 20, 28, 31, 34-hexaoxo-37-(4,7,10-tris(carboxymethyl)-1, 4, 7, 10-tetraazacyclododecan-1-yl)-4, 6, 12, 21, 27, 30, 33-heptaazaheptatriacontane-1, 3, 7, 26, 37-pentacarboxylic acid [Cu-64 PSMA I&T]
period over which RCP of individual dose vials was maintained: 51 h
